From patent publication US20250376495

Biological target: ubiquitin, P0CG48
Sequence (P0CG48 whole entry, looked up): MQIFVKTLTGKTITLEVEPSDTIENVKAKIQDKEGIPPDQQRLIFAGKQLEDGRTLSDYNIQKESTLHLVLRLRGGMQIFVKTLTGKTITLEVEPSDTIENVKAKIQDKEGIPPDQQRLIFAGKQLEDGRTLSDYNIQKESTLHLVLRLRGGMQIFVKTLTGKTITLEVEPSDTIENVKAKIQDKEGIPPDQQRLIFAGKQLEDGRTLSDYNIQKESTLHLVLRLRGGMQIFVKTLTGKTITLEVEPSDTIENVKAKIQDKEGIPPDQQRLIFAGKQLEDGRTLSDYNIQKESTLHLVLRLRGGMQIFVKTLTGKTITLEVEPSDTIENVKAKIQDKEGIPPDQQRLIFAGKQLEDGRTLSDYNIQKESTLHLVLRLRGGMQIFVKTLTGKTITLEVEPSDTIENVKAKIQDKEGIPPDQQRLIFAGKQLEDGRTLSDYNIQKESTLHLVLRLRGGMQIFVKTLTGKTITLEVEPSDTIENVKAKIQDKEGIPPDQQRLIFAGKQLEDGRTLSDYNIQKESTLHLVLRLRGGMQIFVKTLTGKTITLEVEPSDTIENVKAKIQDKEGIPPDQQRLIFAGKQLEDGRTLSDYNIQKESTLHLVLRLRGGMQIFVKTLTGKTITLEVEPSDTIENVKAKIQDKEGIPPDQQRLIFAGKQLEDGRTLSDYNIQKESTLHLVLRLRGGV

Row | Protein | Ube2W-mediated TRIM21 RING monoubiquitination time-course
1 | TRIM21 RING E13A (protein) MASAARLTMMWEAVTCPICLDPFVEPVSIECGHSFCQECISQVGKGGGSVCPVCRQRFLLKNLRPNRQLANMVNNLKEISQEARE | TRIM21 mutants E13A and E13R both showed a slight reduction in activity
2 | TRIM21 RING E13R (protein) MASAARLTMMWERVTCPICLDPFVEPVSIECGHSFCQECISQVGKGGGSVCPVCRQRFLLKNLRPNRQLANMVNNLKEISQEARE | TRIM21 mutants E13A and E13R both showed a slight reduction in activity
